Source: the domain aggregation screens of Martell et al. (2025)

test: soluble fraction after stress (log2 fold change); higher = more stays soluble; pooled small domains, quantitative proteomics; conditions: stress: 75 degC
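Also: 20 min heating vs room temperature control held 20 min.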

| Sequence | soluble fraction (log2) |
| --- | --- |
| HMAHRYQQIADDLGRRVEAGEFAAGRLLPSEATLSGQYKASRVTVRKALEALRTDGLVESRQGFGWFVAAD | -0.405 |
| HMAIADQPISAEHFDKLRQVLNSNTQETIASAKQHWASISNNAEFTNENVTRTLLEEMLAFIKSAS | 0.415 |
| HMAIDVQELARTRLRSLRTTLGYSLDELAARTHLSPSTISRLETGKRSLSLDVVVPLAQALHVSLDVLFEA | -2.67 |
| HMAIEGIFEKYQRRSDQLIPILQDVQKEFGYIAPESVRHISRYLRISENQIFGVSSFYAQFRFT | -0.228 |
| HMAIGTDPETGISVVADGTDFIWTRSGATSTIFLRLDSENSYILNVKQGDFEVIDYELGEGQENAINIDQS | 0.0422 |
| HMAIPEVDPAKQGVSATQLAALDALAHRNAGEGRVAGMVNVVIRNGEIVYYKATGPRHIDGGAPLKSTDLF | -0.148 |
| HMAIQGVRLYERTLETGDPWLDRPLSTLSTGTRLIILVRRGGDVLIPKGDTVLLAGDTLVINDS | -3.85 |
| HMAIRPDAAVSSHAVKQRLQSLIRAEDPAAPLSDEALRLALSALGIGVSRRAVAKYRAEMGIPSSSQRKK | -0.492 |
| HMAISQYGSQSDEVTKIQTRLKAWGYFDGPVTAYYGSQTTEAVKKFQQKHGLSATGVADAKTLELIGLP | -0.397 |
| HMAITLEQFLSVNPHIRNNLYGNAVELVKDKDFSVLSDKLKASSKWANEPSLYKILSHYDEIIS | -0.335 |
| HMAKDSQSADVLQAIFDGSKVLNGLALDQDMRWDLINGLVMSGRLGVEAIEAEAAKLAKLVEELEFR | -0.976 |
| HMAKETLRANIKDYIQKQIASGVYRPGDRIVETQLAREMNVSQAPVREAILELVSLGLLEERPYSGHMVRQ | 0.0046 |
| HMAKIKVFELKNQINSLIKNKIESKDIIDFIETNFGVKKSHSSALEENEANFIKNYFVHADKA | -0.264 |
| HMAKIPASTVVEIDGAPVVVAVRVNARARSYRLSIPHSGGPLLTLPPHGKWAEAEAFLLRHHNWLAARLHR | -2.92 |
| HMAKQEPTDNGYDIYKVTASVLNVRNGAGTSYAVAYQLSKEDYVEVVSIDKGWAKLKDGKYVSADWITLYK | -2.53 |
| HMAKRINVKLIMELSAGGLTQNEIASSRHFSKTSVNLVLKTARELNVSAADLREMSPEEAYRLFFPEK | -1.66 |
| HMAKRKTEKTSVLEEIDGVGKARARALLARFGGLSGVKAASPEELRTVRGITPEIAENIRRYFQ | -0.0813 |
| HMAKRMRNPNGYGSIVKLSGNRRNPYMVKVNTHMDERYYPVYDILGYYPTWADASIALAKYNDDPYNVS | -0.777 |
| HMAKRQATIVYEGTNVRSGPSTSSAIVKRTGKGESYPIVSTKGDWYEIKLSNGDSAYVASWVVQTVD | -0.728 |

| Sequence | soluble fraction (log2) |
| --- | --- |
| HMAKRYFVTTGVRVRTKPDTANSEVLTVLDEGSEIDYKGDYNNEWVKINYNGQEAYIAKQYVRSEE | -0.382 |
| HMAKSDLNYLDFKSKLEAGEIAKASVIRNEDTFKVTLQNGEVYNVTSPDYEDFRKELLEAGVDIQVSK | 0.116 |
| HMAKSMRHLIVPSRETSLWRDKLSTNGWLSKGYGIHNLDDYRGIPLNETAPKIIEGLEITELEPIS | 0.124 |
| HMAKTALEQAQAMVAAYVAAEQQILLGKEVRMGGPGIDRWLRFEDLQEVRAGRKEWESTVTRLQNTAA | -1.27 |
| HMAKTGMDALVGRRVVLTKAIAGEGEGLVAVDGDVWRATSPAGSAIPKGTEVRITGYRSIVLEVEPI | -1.87 |
| HMAKYEVVAKDIISRIKQNEFETTLKLPTEDEMIEYYQVSRNTVRSALKLLTSQGIIFSRQGSGFYIRQRS | -1.95 |
| HMALALSGVDLNRNRLTISWQTSKGVSYRVQRSSDLQSWTDVGAERLGNGNRLSHTQALNTESAFLRVII | -0.0203 |
| HMALEGTLARVSVRIPESGVGEIIFSLGGVRRSEAARSVSGRAIPRGTEVVILSYERGIATVQPYEELLTN | -1.64 |
| HMALEVPGIAKDKIYRIFGQLYERQQKWEDAIDYYNRAVFFTLSGTDMILYQEDLSRVKQKISL | -0.283 |
| HMALKRVAPQGEDKLSAQLDGVEFDKLIPWLGMLEHDHRIAIVNLSIDRANATGLVNARVIL | 0.115 |
| HMALKSGVIAHAVDDAVMRGLNVFTVSDDGSIVSMKDNDIVLGKDGKSPYSVSEWLEELKPNVPHWFG | -0.166 |
| HMALKSYEDMVGKTGVAYTVLRPSGKVIINDELFDATARSGMIEKGNEVIIYDYKNAQLIVEK | 0.263 |
| HMALPASLSPREREIVSLISQGKTNSEIASLLYISVPTVKTHISNIFQKTGVSNRTSLLNRLRMS | -0.996 |
| HMALPHEIKQKWLEEIMTMLRSSDSVTINKVYLHFPENKSHWVDEILTDLSNTHMITRQHDFIRLKN | -0.964 |
| HMALQDKYKQLVDTATASGVANLQVREQDGVLYIDGEAPSGSVKDQLWDIYGKIDPNFLSGDVVMNINV | -0.148 |
| HMALQLPFSFAKRHKVLVESAHEPVKVYHTPSTDFAVFAEVRRFLDQTFVLEEIAENRFEELLTSSFQRD | -1.1 |
| HMALSETIYRLRTEHGLSQGDLAAELDVSRQSISKWETGSSVPELDKLVAMSRLFGVSLDELVLGE | -0.85 |
| HMALSLPDDMTIVRKDGSSLEVRLKSRTVTEIHFERISDSETFQFSIDQLDETTRELVEQYPVM | -0.31 |
| HMALTAEVLRSLIKHHGLGQSIQRTAKAVGLSASTVKKYFDRIAAANLTWQEAKSRTQEELIASLQPT | -0.813 |
